Assay: soluble on expression in E. coli; label from the status in PepcDB or PDB records
In the case of “MGSDKIHHHHHHRLVEVGKGFSSTSVNTTVFRNNSIVTHGNTQYISYYDAEGWLMLGKRRLGTGEWILHRTQYKGHVKDAHNIISMMVDGDGYLHLSFDHHGHKLNYCRSIAPDTLVLGDKEPMIGNEEEDVTYPEFHLLADGGLLFVYRSGASGRGNMVMNRYDVKSRKWERVQDVLVDGENERNAYWQLYVDQSGTIHLSWVWRETWHVETNHDLCYARSFDGGRTWYKTNGQKYELPIRLGNAEYACRIPQNAELINQTSMSTDAGGHPYIATYWRNPDSDVPQYRIVWHDGVNWHNRQVSERKAPFSLKGGGTKMIPMSRPRMVVDNGEVYYLFRDQERGSKVSMYYTKDIQFGEWHVKDLTDFAVNAWEPSHDTELWKMKKQLHIYVQDTRQGDGEKQVETEPQMVYVLEL”, the “soluble on expression in E. coli” value is reported as “not soluble”.
In the case of “MAHHHHHHMKWKWYNTKNICTLTNVFLSKHPYKPKTREIIHPHMTPPEYLAPSDCFQAKTGELQQYIPNNYYRVKWIESLRSGEYLGEDYPWNLLPNWKYWRKRKYNVKYEEIPWFISKVKGVSYYKRLNVWMVQWVENGVHRIRRFRCAFGLLQAKLAAEQFRKKLEEAGRVDNRKTERQIRMDYIQKKDERLLRKKKYSKISKGQF”, the “soluble on expression in E. coli” value is reported as “not soluble”.
With “MGRLDGKVIILTAAAQGIGQAAALAFAREGAKVIATDINESKLQELEKYPGIQTRVLDVTKKKQIDQFASEVERLDVLFNVAGFVHHGTVLDCEEKDWDFSMNLNVRSMYLMIKAFLPKMLAQKSGNIINMSSVASSVKGVVNRCVYSTTKAAVIGLTKSVAADFIQQGIRCNCVCPGTVDTPSLQERIQARGNPEEARNDFLKRQKTGRFATAEEIAMLCVYLASDESAYVTGNPVIIDGGWSL” the “soluble on expression in E. coli” value was “not soluble”.
For “GPGSMPSPFQQTLLARAYHYVHPKTGRPIRQFRRYGDPRYINNEAALIRGQWGLITADFGMVTQSQMENARLAILRRLPRGSFTLTMHTDYEEFPVVKKSPESRMGAGKANIHHFAFKFTTGVPLFEIMPISARRLNQAEAEGIFLAGRPFIPLQTVVVPQGRVDEYHVFK”, the “soluble on expression in E. coli” value was “not soluble”.
For “MAHHHHHHMDGGVVKTILRKGEGGEENAPKKGNEVTVHYVGKLESSGKVFDSSRERNVPFKFHLGQGEVIKGWDICVASMTKNEKCSVRLDSKYGYGEEGCGESIPGNSVLIFEIELISFREAKKSIYDYTNEEKIQAAFDLKEEGNDFFKKNEIDEAISKYKEALDLFIHAEDWDGDLAEKKKNIEIICNLNLSTCYNKSKDFPNAIAHASKVLKIEKNNVKALYKLGVANMHFGFLEVAKENLYKAASLSPNNVEIRNSYDACLSKLKEARKRDKLTFGGMFDKGI”, the “soluble on expression in E. coli” value was “not soluble”.
With “MVTKTTLASATSGLLLLAVVAMSGCTPRPQGPGPAAEKFFAALAIGDTASAAQLSDNPNEAREALNAAWAGLQAAHLDAQVLSAKYAEDTGTVAYRFSWHLPKDRIWTYDGQLKMARDEGRWHVRWTTSGLHPKLGEHQTFALRADPPRRASVNEVGGTDVLVPGYLYHYSLDAGQAGRELFGTAHAVVGALHPFDDTLNDPQLLAEQASSSTQPLDLVTLHADDSNRVAAAIGQLPGVVITPQAELLPTDKHFAPAVLNDVKKAVVDELDGKAGWRVVSVNQNGVDVSVLHEVAPSPASSVSITLDRVVQNAAQHAVNTRGGKAMIVVIKPSTGEILAIAQNAGADADGPVATTGLYPPGSTFKMITAGAAVERDLATPETLLGCPGEIDIGHRTIPNYGGFDLGVVPMSRAFASSCNTTFAELSSRLPPRGLTQAARRYGIGLDYQVDGITTVTGSVPPTVDLAERTEDGFGQGKVLASPFGMALVAATVAAGKTPVPQLIAGRPTAVEGDATPISQKMIDALRPMMRLVVTNGTAKEIAGCGEVFGKTGEAEFPGGSHSWFAGYRGDLAFASLIVGGGSSEYAVRMTKVMFESLPPGYLA” the “soluble on expression in E. coli” value was “not soluble”.
With “GSPHMDEISETNTIFKLEGVSVLSPLRKKLDLVFYLSNVDGSPVITLLKGNDRELSIYQLNKNIKMASFLPVPEKPNLIYLFMTYTSCEDNKFSEPVVMTLNKENTLNQFKNLGLLDSNVTDFEKCVEYIRKQAILTGFKISNPFVNSTLVDTDAEKINSFHLQCHRGTKEGTLYFLPDHIIFGFKKPILLFDASDIESITYSSITRLTFNASLVTKDGEKYEFSMTDQTEYAKIDDYVKRKQMKDKSMSEELKAKSKSKG” the “soluble on expression in E. coli” value was “soluble”.
With “MGSDKIHHHHHHMAESIRPLTKNDRQQFVTVMTKVFAKDPLFLYIFGDLYNDHRAQRRARTFMGFIFDKSMERQAEAVWGLFDKDTLLGTYVVESCPAETNHSFAELYRLMILIFRLSLQLPPKMTWQLNRYMRVTRAHAPSIPHHYLTIIGVRKEAQGAGRGRNLLEHIFGTIGSGELSLDTEKKENVTLYKKFGFVLTDVVKCGPINVYCMRKTIRPRQKN” the “soluble on expression in E. coli” value was “not soluble”.
For “MSARILVVDDIEANVRLLEAKLTAEYYEVSTAMDGPTALAMAARDLPDIILLDVMMPGMDGFTVCRKLKDDPTTRHIPVVLITALDGRGDRIQGLESGASDFLTKPIDDVMLFARVRSLTRFKLVIDELRQREASGRRMGVIAGAAARLDGLGGRVLIVDDNERQAQRVAAELGVEHRPVIESDPEKAKISAGGPVDLVIVNAAAKNFDGLRFTAALRSEERTRQLPVLAMVDPDDRGRMVKALEIGVNDILSRPIDPQELSARVKTQIQRKRYTDYLRNNLDHSLELAVTDQLTGLHNRRYMTGQLDSLVKRATLGGDPVSALLIDIDFFKKINDTFGHDIGDEVLREFALRLASNVRAIDLPCRYGGEEFVVIMPDTALADALRIAERIRMHVSGSPFTVAHGREMLNVTISIGVSATAGEGDTPEALLKRADEGVYQAKASGRNAVVGKAAHHHHH”, the “soluble on expression in E. coli” value was “soluble”.
In the case of “VQAANLMDRIKANPVSEKNIDEKFIYNTADFSIELFKNSIDDKENSLISPLSAMLALAMTANGADNETLAQMEKALGKDISIEDLNKYLYTYMKKLPNEEKSKLTIANSIWFKENDFMPSKDFLQIIADYYKADIFKAAFDSSTVSDINNWVKSKTNGMIDKILNKIDPEDVMYLINAVAFDAEWETVYEKASVHEDIFTDVYGNRQKVEFMNSEENLYIEEENAIGFVKPYAKNHYSFVAILPDENISVNEYIKTLTGQKFIDLIKNAKITLVRASLPKFKYEYTIKMNETLESLGMTDAFLPDKADFSKLGKSDIGNLYISEVLHKTFISVDELGTKAGAVTSVDITAAGIPVNFKTVKLNRPFIFAIIDNSTNLPIFIGTVLSL”, the “soluble on expression in E. coli” value is reported as “soluble”.
For “MAASPLVVQKTEEEWRAVLSPEQFRILRQKGTEKPGTGEYDKFFEEGIFDCVGCKTPLYKSTTKFDSGCGWPAFFEGLPGAINRTPDPDGRRTEITCAACDGHLGHVFKGEGYGNPTDERHCVNSVSISFNPAKSSSII”, the “soluble on expression in E. coli” value was “soluble”.
In the case of “MSLTDDLKVCNQTGVGEAINQIYKDDGRRCEGYESRDKKCLCISDNNTSLYAILSGHNGVTVAENALQEMAAELLLGQLNVCNTDEAVKELIRQSFMSVEKGYFDSINPHVATKTAIQLHLSADGMNQYEISQQFENVLQKLDSLNNALSVGSSAVLALIHRSHLYLGNIGNCRALLCKTDEHDTLTVTQLSVDHNLLNAEEAARLFRLGLMAQNFEGVPLYSTRCIGNYLGKAGYKDCNFLSSATAEPVIFEPEIVGGIQITPACRFLVLMSSGLCRALHEIFPGDASTGNRELVRMISEEFQNQSTLGGVAQSVVHRIVQAHHDTYMQLVEEHRSVTFNSRDDVTLLIRNFNYAEGHHHHHH”, the “soluble on expression in E. coli” value is reported as “not soluble”.
In the case of “MKSFKEQYTLDERLAESREIIAKYPTRIPVIAEKYCKTDLPAIEKKKFLVPRDMSVGQFIYILSARLHLSPGKALFVFVNNTLPQTAALMDSVYESYKDDDGFVYMCYSSEKTFG”, the “soluble on expression in E. coli” value is reported as “not soluble”.
For “MGSDKIHHHHHHMATTESFAQTLAAKQPRLLAAFKHIIAQNHLAHAYLFAGMEGAGQPELAHWIAQRLFCLHINDGEPDGTCEECVRIANGSHPDIVTVAPEGQRIHVDQVRYLKAEFSKSAVEGNRKLFIINDAEKMTASAANSLLKFIEEPSGNVTALLLTTNKQLMLPTIISRTQVIEFPPLNAQALQQTFEQAGIAPNQAQMLRGLTNSVTQAQALLADDWLPQAAQALWRWFDQAVKGDPRSFVAVQVNLVGLAKDADHQLVMLDLIAALFQDLLQLHFEVATTALTFGQYQKELAGLTAEVSDEQLIAATELALTAKRQLASNISFQNVLEGLTLKLWPIFQTNA”, the “soluble on expression in E. coli” value was “not soluble”.
In the case of “MSTPYVSVIGKITGIHKKEYESDGTTKSVYQGYIEDDTARIRISSFGKQLQDSDVVRIDNARVAQFNGYLSLSVGDSSRIESVNVNIPLEHHHHHH”, the “soluble on expression in E. coli” value is reported as “not soluble”.
For “MASTNCVSIQKRDILRGSGSTTWFDVLLEKGSCVTIVADDRPTVDIWLDRITHESPIAGREYCMRVDISGLKIATRCPTLGEAYLSEEHTEDYVCKRGFSDRGWGNGCGLFGKGSIVGCVKTTCKSSGIAKSYSYDIPKVKYVISTEVHKGELISGNVSASVVSATFSSEAEKHSMELEDYGRLEFTCRVVSGSNLGSVRILEIDNHYFNVHEDWLLDLPLPWRIPDGHWHDLGELIAFKEPHAVKMVAQAYGDQRASLLKSLVKAEEIAKSGNSYYLPGGHVDCRVSLVNLKLKGTTYPYCGDSFVWKRRPTATHHGTVAMEVTYQGTDVPCKVSVIVEKDGQNGGNAGSLITSNPIITAQGSSVFLELEVPLGFSTIKVGAAKQQWRQDGSSIGKALETHHHHHH”, the “soluble on expression in E. coli” value was “not soluble”.
In the case of “MDDLIELEISKTQCIRIYLPCKKEDLDFFDCVTIEYLKEQTEYILYYKDLSGAAIISLKELLEKALNFKLQIENEYKDKGIGYYHSIYTNNIYANKLQTAGSQDLIDPTKDFLVWSTLGPTSIGTFIYNDQDKIYIEISPLYEWFNHIFDDILEEYNEVKDEDASFDDFLNNYKPIDIVAIDRKVAEKWLEFCCEMIEILKANDKKQLK”, the “soluble on expression in E. coli” value is reported as “not soluble”.
For “MSLTTITLRSAELFDVYLTFRQPMQTAISILSKRRTTILRLTDQEGRIGYGEGVAFETPWYTAETQDSLRALSPLLYRLLAAAPLSSPAAVAARFQPIKGNQMAKAMFDGAVHELFAQAEQTSLAAYLGGDENRSIPCGKALGRSSAEQTVEAVGQALNDGFERIKLKLAPTDTAVLEQVRKSFPGAPLMFDANGSFQVADLPLLQEWDTFSMLMMEQPFPADDWLSHQHAASLLKTPLCLDESIQTTQDALLMRTLQAGQIINIKPARLGGLTAALDVRSISPSYWLGGMFESGIGRRQTLAFATLPGLAYPIDMSGTDQYFIEDLLEQDYIVENGSIRYAEHSVSQERLERLAVSTKKLEGHHHHHH”, the “soluble on expression in E. coli” value was “soluble”.
In the case of “MGQCRSANAEDAQEFSDVERAIETLIKNFHQYSVEGGKETLTPSELRDLVTQQLPHLMPSNCGLEEKIANLGSCNDSKLEFRSFWELIGEAAKSVKLERPVRGH”, the “soluble on expression in E. coli” value is reported as “soluble”.
With “MNEKQKRFADEYIMNGCNGKKAAISAGYSKKTAESLASRLLRNVNVSEYIKERLEQIQEERLMSITEALALSASIARGEPQEAYSKKYDHLNDEVEKEVTYTITPTFEERQRSIDHILKVYGAYIDKKEITQKNIEINIGEYDDES” the “soluble on expression in E. coli” value was “not soluble”.
With “MAGEHIKVIYFDGRGRAESIRMTLVAAGVDYEDERISFQDWPKIKPTIPGGRLPAVKVTDDHGHVKWMLESLAIARYMAKKHHMMGETDEEYYSVEKLIGQAEDVEHEYHKTLMKPQEEKEKITKEILNGKVPVLFNMICESLKGSTGKLAVGDKVTLADLVLIAVIDHVTDLDKGFLTGKYPEIHKHRENLLASSPRLAKYLSNRPATPF” the “soluble on expression in E. coli” value was “soluble”.

From the DeepSol protein solubility set
